# Source: patent publication US11319368B2, “Treatment of hepatotoxicity with IL-11 antibody” (Singapore Health Services PTE LTD., priority 2019, dated 2022)
# B1: sgp130: human soluble gp130 Fc, inhibitor of trans-signaling complexes acting through gp130 (protein)
# chain: ELLDPCGYISPESPVVQLHSNFTAVCVLKEKCMDYFHVNANYIVWKTNHFTIPKEQYTIINRTASSVTFTDIASLNIQLTCNILTFGQLEQNVYGITIISGLPPEKPKNLSCIVNEGKKMRCEWDGGRETHLETNFTLKSEWATHKFADCKAKRDTPTSCTVDYSTVYFVNIEVWVEAENALGKVTSDHINFDPVYKVKPNPPHNLSVINSEELSSILKLTWTNPSIKSVIILKYNIQYRTKDASTWSQIPPEDTASTRSSFTVQDLKPFTEYVFRIRCMKEDGKGYWSDWSEEASGITYEDRPSKAPSFWYKIDPSHTQGYRTVQLVWKTLPPFEANGKILDYEVTLTRWKSHLQNYTVNATKLTVNLTNDRYLATLTVRNLVGKSDAAVLTIPACDFQATHPVMDLKAFPKDNMLWVEWTTPRESVKKYILEWCVLSDKAPCITDWQQEDGTVHRTYLRGNLAESKCYLITVTPVYADGPGSPESIKAYLKQAPPSKGPTVRTKKVGKNEAVLEWDQLPVDVQNGFIRNYTIFYRTIIGNETAVNVDSSHTEYTLSSLTSDTLYMVRMAAYTDEGGKDGPEFTFTTPKFAQGEIE
# modifications: left off: a dimerising Fc or GST
# B2: X203: antagonist anti-IL11 antibody (Ng et al., Sci Transl Med. 2019) (antibody, V domains shown)
# VH: EVQLQQSGPELVKPGASVKIPCKASGYTFTDYNMDWVKQSHGKSLEWIGDINPHNGGPIYNQKFTGKATLTVDKSSSTAYMELRSLTSEDTAVYYCARGELGHWYFDVWGTGTTVTVSS
# VL: DIVLTQSPASLAVSLGQRATISCRASKSVSTSGYSYIHWYQQKPGQPPKLLIYLASNLDSGVPARFSGSGSGTDFTLNIHPVEEEDAATYYCQHSRDLPPTFGGGTKLEIK
# B3: rmIL11: recombinant mouse IL11 (UniProtKB: P47873, Genscript) (protein)
# chain: PGPPAGSPRVSSDPRADLDSAVLLTRSLLADTRQLAAQMRDKFPADGDHSLDSLPTLAMSAGTLGSLQLPGVLTRLRVDLMSYLRHVQWLRRAGGPSLKTLEPELGALQARLERLLRRLQLLMSRLALPQAAPDQPVIPLGPPASAWGSIRAAHAILGGLHLTLDWAVRGLLLLKTRL
# B4: HyperIL11: IL11Rα:IL11 fusion protein which mimics the trans-signalling complex (SEQ ID NO:21) (protein)
# chain: MSSSCSGLSRVLVAVATALVSASSPCPQAWGPPGVQYGQPGRSVKLCCPGVTAGDPVSWFRDGEPKLLQGPDSGLGHELVLAQADSTDEGTYICQTLDGALGGTVTLQLGYPPARPVVSCQAADYENFSCTWSPSQISGLPTRYLTSYRKKTVLGADSQRRSPSTGPWPCPQDPLGAARCVVHGAEFWSQYRINVTEVNPLGASTRLLDVSLQSILRPDPPQGLRVESVPGYPRRLRASWTYPASWPCQPHFLLKFRLQYRPAQHPAWSTVEPAGLEEVITDAVAGLPHAVRVSARDFLDAGTWSTWSPEAWGTPSTGPAGQSGGGGGSGGGSGGGSVPGPPPGPPRVSPDPRAELDSTVLLTRSLLADTRQLAAQLRDKFPADGDHNLDSLPTLAMSAGALGALQLPGVLTRLRADLLSYLRHVQWLRRAGGSSLKTLEPELGTLQARLDRLLRRLQLLMSRLALPQPPPDPPAPPLAPPSSAWGGIRAAHAILGGLHLTLDWAVRGLLLLKTRL
# modifications: Hyper IL-11 (IL-11RAIL-11 fusion)
# B5: sIL11Rα: soluble IL11Rα (human IL11Rα, R&D systems) (protein, UniProt Q14626 24-370, looked up)
# extracellular domain: SPCPQAWGPPGVQYGQPGRSVKLCCPGVTAGDPVSWFRDGEPKLLQGPDSGLGHELVLAQADSTDEGTYICQTLDGALGGTVTLQLGYPPARPVVSCQAADYENFSCTWSPSQISGLPTRYLTSYRKKTVLGADSQRRSPSTGPWPCPQDPLGAARCVVHGAEFWSQYRINVTEVNPLGASTRLLDVSLQSILRPDPPQGLRVESVPGYPRRLRASWTYPASWPCQPHFLLKFRLQYRPAQHPAWSTVEPAGLEEVITDAVAGLPHAVRVSARDFLDAGTWSTWSPEAWGTPSTGTIPKEIPAWGQLHTQPEVEPQVDSPAPPRPSLQPHPRLLDHRDSVEQVAVLA
# modifications: extracellular domain
# B6: PEGylated rhIL11: PEGylated rhIL11 (Lee et al. 2012) (conjugate, UniProt P20809 22-199, looked up)
# Interleukin-11: PGPPPGPPRVSPDPRAELDSTVLLTRSLLADTRQLAAQLRDKFPADGDHNLDSLPTLAMSAGALGALQLPGVLTRLRADLLSYLRHVQWLRRAGGSSLKTLEPELGTLQARLDRLLRRLQLLMSRLALPQPPPDPPAPPLAPPSSAWGGIRAAHAILGGLHLTLDWAVRGLLLLKTRL
# modifications: PEG
# Experiments:
# [1] = system: rheumatoid synovial cells; conditions: cited from earlier work
# human hepatocytes [2] = conditions: 0.2 mM H2O2, 24 hours
# Experimental: Human hepatocytes (5200, ScienCell) were grown and maintained at 37° C. and 5% CO2. Hepatocyte medium (5201, ScienCell) supplemented with 2% fetal bovine serum and 1% Penicillin-streptomycin was renewed every 2-3 days and cells were passaged at 80% confluence using standard trypsinization techniques. All the experiments were carried out at low cell passage (P2-P3) and cells were serum-starved for 16 hours prior to respective stimulations (24 hours) that were performed in serum-free hepatocyte media. Stimulated cells were compared to unstimulated cells that have been grown for the same duration under the same conditions (serum-free hepatocyte media), but without the stimuli. […] The levels of IL-11 in mouse serum and hepatocyte supernatant were quantified using Mouse IL-11 DuoSet (DY418 and DY008, R&D Systems) and Human IL-11 Quantikine ELISA kit [MUT], R&D Systems), respectively, according to the manufacturer's protocol.
# AILI [3] = experiment: X209, NAC or NAC+X209 3 h after APAP in mice
# Experimental: Mice were administered anti-IL11Rα (X209) or IgG isotype control antibody at different times and doses, as described above or in the figure legends.
# The levels of alanine transaminase (ALT) or aspartate aminotransferase (AST) in mouse serum and hepatocyte supernatant were measured using ALT Activity (ab105134, Abcam) or AST (ab105135, Abcam) Assay Kits. Liver glutathione sulfhydryl (GSH) measurements were performed using Glutathione Colorimetric Detection Kit (EIAGSHC, Thermo Fisher). All colorimetric assays were performed according to the manufacturer's protocol.
# Western blots were carried out from hepatocyte and liver tissue lysates. Hepatocytes and tissues were homogenized in radioimmunoprecipitation assay (RIPA) buffer containing protease and phosphatase inhibitors (Thermo Fisher), followed by centrifugation to clear the lysate. Protein concentrations were determined by Bradford assay (Bio-Rad). Equal amounts of protein lysates were separated by SDS-PAGE, transferred to PVDF membrane, and subjected to immunoblot analysis for the indicated primary antibodies. Proteins were visualized using the ECL detection system (Pierce) with the appropriate secondary antibodies.
# [4] = system: primary human hepatocytes; experiment: hyperIL11 or hyperIL6 stimulation of primary human hepatocytes, with or without sgp130; assay type: cell-based
# [5] = system: primary human hepatocytes; experiment: IL11 stimulation of primary human hepatocytes with sgp130 or sIL11Rα; assay type: cell-based; conditions: for effect on IL11-induced hepatocyte death and signaling: IL11 20 ng/ml, sgp130, sIL11Rα 1 μg/ml; for effect on ALT release from IL11-stimulated hepatocytes: increasing doses
# [6] = system: APAP overdose acute liver injury; experiment: Severe APAP overdose in mice, anti-IL11 antibody (X203) 16 h before; assay type: in vivo, mouse; conditions: 20 mg/kg IP 16 hours before APAP 400 mg/kg; 24 hours after APAP
# AILI [7] = experiment: rhIL11 or rmIL11 injection in APAP OD mice; assay type: in vivo, mouse
# Experimental: FIGS. 10A to 10L. […] (A, B, K, L) 24 h. […] FC: fold change
# liver = conditions: single subcutaneous injection 500 μg kg^-1
# Experimental: (A) Effect of recombinant human IL11 (rhIL11, 10 ng ml^−1) or recombinant mouse IL11 (rmIL11, 10 ng ml^−1) on ERK, JNK and CASP3 activation status in mouse hepatocytes. (B) ALT levels in mouse hepatocyte supernatant following stimulation by rmIL11 (10 ng ml^−1) or by increasing doses of rhIL11 (1, 5, 10, 15 and 20 ng ml^−1). (C) Schematic of mice receiving a single subcutaneous injection of either saline, rhIL11, or rmIl11 (500 μg kg^−1). (D) Western blot analysis of hepatic p-ERK, p-JNK, and Cl. […] Dose-dependent inhibition effect of rhIL11 on rmIL11-induced (K) ALT secretion and (L) CASP3 activation by mouse hepatocytes. (A, B, K, L) 24 h. (B, K) Data are shown as mean±SD; (E, G) Data are shown as box-and-whisker with median (middle line), 25th-75th percentiles (box), and minimum-maximum values (whiskers). (B, K) Two-tailed, Tukey-corrected Student's t-test; (E) two-tailed Student's t-test; (G) two-tailed Dunnett's test.
# The levels of alanine transaminase (ALT) or aspartate aminotransferase (AST) in mouse serum and hepatocyte supernatant were measured using ALT Activity (ab105134, Abcam) or AST (ab105135, Abcam) Assay Kits. […] All colorimetric assays were performed according to the manufacturer's protocol.
# Western blots were carried out from hepatocyte and liver tissue lysates. […] Protein concentrations were determined by Bradford assay (Bio-Rad). […]
# human hepatocytes [8] = experiment: rhIL11 versus rmIL11 on human hepatocytes; assay type: cell-based; conditions: 10 ng ml^-1
# mouse hepatocytes = experiment: rhIL11 versus rmIL11 on mouse hepatocytes; assay type: cell-based
# Text: Mouse hepatocytes (ABC-TC3928, AcceGen Biotech) were maintained in mouse hepatocyte medium (ABC-TM3928, AcceGen Biotech) supplemented with 1% Penicillin-streptomycin.
# kidney = conditions: 100-1000 μg/kg, IP; 10 minutes prior to or 30-60 minutes following IR; cited from earlier work
molecule,measurement,setting,value
interferon-gamma: interferon-gamma (IFNγ),expression of IL-11,[1],reduction in the expression of IL-11
"OO [H2O2, hydrogen peroxide]",IL-11 upregulated in the supernatant,human hepatocytes [2],10 fold
"COc1ccc2c(c1)c(CC(=O)O)c(C)n2C(=O)c1ccc(Cl)cc1 [indomethacin, reference compound]",expression of IL-11,[1],reduction in the expression of IL-11
"CC(=O)N[C@@H](CS)C(=O)O [NAC, N-acetyl-cysteine, reference compound]",ALT reduction,"AILI [3]; 3 h after APAP, NAC 500 mg kg^-1, X209 5 mg kg^-1",38%
same,serum levels of ALT and AST,AILI [3]; NAC 500 mg kg^-1 3 h after APAP,reduced serum levels of ALT and AST
B1,hepatotoxic effects of hyperIL11 (ALT),[4]; increasing amounts of sgp130,inhibited the hepatotoxic effects of hyperIL11
same,signaling pathways downstream of hyperIL11 and hyperIL6,[4]; sgp130 with hyperIL11 or hyperIL6 20 ng/ml,blocked the activation of signaling pathways downstream of both hyperIL11 (p-ERK/p-JNK) and hyperIL6 (p-STAT3)
same,effect on IL11-induced hepatocyte death and signaling,[5],unaffected
same,effect on ALT release from IL11-stimulated hepatocytes,[5],no effect on ALT release
B2,serum ALT levels,[6],substantial reduction
same,serum AST levels,[6],substantial reduction
B3,hepatic GSH levels after APAP,AILI [7]; APAP injury,did not
same,protection against AILI,"AILI [7]; subcutaneous injection, APAP OD",not protective
same,hepatic ERK and JNK phosphorylation,liver,gradual ERK and immediate JNK activation
same,ERK and JNK signaling and hepatocyte death,human hepatocytes [8],did not
same,"ERK and JNK phosphorylation, CASP3 cleavage","mouse hepatocytes; 10 ng ml^-1, 24 h",stimulated ERK and JNK phosphorylation and induced CASP3 cleavage
same,mouse hepatocyte cell death (ALT in supernatant),mouse hepatocytes; 24 h,induced mouse hepatocyte cell death
B4,ERK and JNK activation,"[4]; 2.5 ng/ml to 20 ng/ml, 24 h",activated ERK and JNK in a dose-dependent manner
same,alanine transaminase (ALT) in the media,"[4]; dose range, 24 h",dose-dependent increase in alanine transaminase (ALT)
B5,effect on IL11-induced hepatocyte death and signaling,[5],unaffected
same,effect on ALT release from IL11-stimulated hepatocytes,[5],no effect on ALT release
B6,renoprotection,kidney,The authors conclude that IL11 is renoprotective based on pre-
